The results in this text go back to patent US20250011418A1 (ZIELBIO, published 2025).

T1: Sec8-His (section 8 (Sec8), an antigenic region of CSP-1, tagged with a polyhistidine (His) tag)
T1 construct: also called Sec8-His antigen
T1 chain: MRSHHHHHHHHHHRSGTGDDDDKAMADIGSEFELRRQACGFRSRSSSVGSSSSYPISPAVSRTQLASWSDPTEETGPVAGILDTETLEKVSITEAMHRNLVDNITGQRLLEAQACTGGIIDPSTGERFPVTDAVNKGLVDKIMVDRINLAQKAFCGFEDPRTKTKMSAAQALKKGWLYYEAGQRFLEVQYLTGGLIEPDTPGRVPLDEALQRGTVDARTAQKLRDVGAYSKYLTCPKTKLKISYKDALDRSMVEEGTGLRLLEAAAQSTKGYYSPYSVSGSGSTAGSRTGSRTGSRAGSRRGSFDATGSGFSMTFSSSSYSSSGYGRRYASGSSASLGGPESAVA

B1: humanized anti-CSP-1 antibody, Antibody Number 16 (Table 1) (antibody, human IgG1, V domains shown)
VH: EVQLVESGGDLVKPGGSLKLSCAASGFTFSRYGMSWVRQTPDKRLEWVATISIGGTYTYYPDSMKGRFTISRDNAKNTLYLQMSSLKSEDTAMYYCARRGYGNYSYYGMDYWGQGTSVTVSS
VL: DIVMTQAAFSNPVTLGTSASISCRSSKSLLHSNGITYLYWYLQKPGQSPQLLIYQMSNLASGVPDRFSSSGSGTDFTLRISRVEAEDVGVYYCAQNLELPLTFGAGTKLELK
notes: also called Antibody 16
B2: humanized anti-CSP-1 antibody, Antibody Number 19 (Table 1) (antibody, human IgG1, V domains shown)
VH: EVQLVESGGDLVKPGGSLKLSCAASGFTFSRYGMSWVRQTPDKRLEWVATISIGGTYTYYPDSMKGRFTISRDNAKNTLYLQMSSLKSEDTAMYYCARRGYGNYSYYGLDYWGQGTSVTVSS
VL: DIVMTQAAFSNPVTLGTSASISCRSSKSLLHSNGITYLYWYLQKPGQSPQLLIYQMSNLASGVPDRFSSSGSGTDFTLRISRVEAEDVGVYYCAQNLELPLTFGAGTKLELK
notes: also called Antibody 19
B3: humanized anti-CSP-1 antibody, Antibody Number 17 (Table 1) (antibody, human IgG1, V domains shown)
VH: EVQLVESGGDLVKPGGSLKLSCAASGFTFSRYGMSWVRQTPDKRLEWVATISIGGTYTYYPDSMKGRFTISRDNAKNTLYLQMSSLKSEDTAMYYCARRGYGSYSYYGMDYWGQGTSVTVSS
VL: DIVMTQAAFSNPVTLGTSASISCRSSKSLLHSNGITYLYWYLQKPGQSPQLLIYQMSNLASGVPDRFSSSGSGTDFTLRISRVEAEDVGVYYCAQNLELPLTFGAGTKLELK
notes: also called Antibody 17
B4: humanized anti-CSP-1 antibody, Antibody Number 18 (Table 1) (antibody, human IgG1, V domains shown)
VH: EVQLVESGGDLVKPGGSLKLSCAASGFTFSRYGMSWVRQTPDKRLEWVATISIGGTYTYYPDSMKGRFTISRDNAKNTLYLQMSSLKSEDTAMYYCARRGYGQYSYYGMDYWGQGTSVTVSS
VL: DIVMTQAAFSNPVTLGTSASISCRSSKSLLHSNGITYLYWYLQKPGQSPQLLIYQMSNLASGVPDRFSSSGSGTDFTLRISRVEAEDVGVYYCAQNLELPLTFGAGTKLELK
notes: also called Antibody 18
B5: humanized anti-CSP-1 antibody, Antibody Number 20 (Table 1) (antibody, human IgG1, V domains shown)
VH: EVQLVESGGDLVKPGGSLKLSCAASGFTFSRYGMSWVRQTPDKRLEWVATISIGGTYTYYPDSMKGRFTISRDNAKNTLYLQMSSLKSEDTAMYYCARRGYGNYSYYGIDYWGQGTSVTVSS
VL: DIVMTQAAFSNPVTLGTSASISCRSSKSLLHSNGITYLYWYLQKPGQSPQLLIYQMSNLASGVPDRFSSSGSGTDFTLRISRVEAEDVGVYYCAQNLELPLTFGAGTKLELK
notes: also called Antibody 20
B6: humanized anti-CSP-1 antibody, Antibody Number 2 (Table 1) (antibody, human IgG1, V domains shown)
VH: QIQLVQSGPELKKPGETVKISCKASGYTFTDYSMHWVKQAPGKGLKWMGWIQTETGEPTYADDFKGRFAFSLETSASTAYLQINNLKNEDTATYFCAPGGFAYWGQGTLVTVSA
VL: DIVMTQAAPSVPVTPGESVSISCRSSKSLLHSNGNTYLYWFLQRPGQSPQLLIYRMSNLASGVPDRFSGSGSGTAFTLRISRVEAEDVGVYYCMQHLEYPLTFGAGTKLELK
notes: also called Antibody 2
B7: humanized anti-CSP-1 antibody, Antibody Number 15 (Table 1) (antibody, human IgG1, V domains shown)
VH: QIQLVQSGPGLKQPGGSVRISCAASGYTFTDYSMHWVKQAPGKGLKWMGWINTETGEPTYADDFKGRFTFSLDTSKSTAYLQINSLRAEDTATYFCAPGGFAYWGQGTLVTVSS
VL: DIVMTQSAPSLPVTPGQSVSISCRSSKSLLHSNGNTYLYWFLQKPGQSPQLLIYRMSNRASGVPDRFSGSGSGTDFTLKISRVEAEDVGVYYCMQHLEYPLTFGQGTKLEIK
notes: also called Antibody 15
B8: humanized anti-CSP-1 antibody, Antibody Number 11 (Table 1) (antibody, human IgG1, V domains shown)
VH: QIQLVQSGPEVKKPGASVKISCKASGYTFTDYSMHWVKQAPGQGLKWMGWINTETGEPTYADDFKGRFTFTLDTSTSTAYLEISSLRSEDTATYFCAPGGFAYWGQGTLVTVSS
VL: DIVMTQSAPSVPVTPGQSVSISCRSSKSLLHSNGNTYLYWFLQKPGQSPQLLIYRMSNRASGVPDRFSGSGSGTDFTLKISRVEAEDVGVYYCMQHLEYPLTFGQGTKLEIK
notes: also called Antibody 11
B9: humanized anti-CSP-1 antibody, Antibody Number 3 (Table 1) (antibody, human IgG1, V domains shown)
VH: QIQLVQSGPELKKPGETVKISCKASGYTFTDYSMHWVKQAPGKGLKWMGWINTETGEPTYADDFKGRFAFSLETSASTAYLQINNLKNEDTATYFCAPGGFAYWGQGTLVTVSA
VL: DIVMTQAAPSVPVTPGESVSISCRSSKSLLHSSGNTYLYWFLQRPGQSPQLLIYRMSNLASGVPDRFSGSGSGTAFTLRISRVEAEDVGVYYCMQHLEYPLTFGAGTKLELK
notes: also called Antibody 3
B10: humanized anti-CSP-1 antibody, Antibody Number 12 (Table 1) (antibody, human IgG1, V domains shown)
VH: QIQLVQSGPEVKKPGASVKISCKASGYTFTDYSMHWVKQAPGQGLKWMGWINTETGEPTYADDFKGRFTFTLDTSTSTAYLEISSLRSEDTATYFCAPGGFAYWGQGTLVTVSS
VL: DIVMTQSAPSLPVTPGQSVSISCRSSKSLLHSNGNTYLYWFLQKPGQSPQLLIYRMSNRASGVPDRFSGSGSGTDFTLKISRVEAEDVGVYYCMQHLEYPLTFGQGTKLEIK
notes: also called Antibody 12
B11: humanized anti-CSP-1 antibody, Antibody Number 14 (Table 1) (antibody, human IgG1, V domains shown)
VH: QIQLVQSGPGLKQPGGSVRISCAASGYTFTDYSMHWVKQAPGKGLKWMGWINTETGEPTYADDFKGRFTFSLDTSKSTAYLQINSLRAEDTATYFCAPGGFAYWGQGTLVTVSS
VL: DIVMTQSAPSVPVTPGQSVSISCRSSKSLLHSNGNTYLYWFLQKPGQSPQLLIYRMSNRASGVPDRFSGSGSGTDFTLKISRVEAEDVGVYYCMQHLEYPLTFGQGTKLEIK
notes: also called Antibody 14
B12: humanized anti-CSP-1 antibody, Antibody Number 13 (Table 1) (antibody, human IgG1, V domains shown)
VH: QIQLVQSGPEVKKPGASVKISCKASGYTFTDYSMHWVRQAPGQGLEWMGWINTETGEPTYAQKFQGRFTFTLDTSTSTAYLEISSLRSEDTAVYFCAPGGFAYWGQGTLVTVSS
VL: DIVMTQSAPSVPVTPGQSVSISCRSSKSLLHSNGNTYLYWFLQKPGQSPQLLIYRMSNRASGVPDRFSGSGSGTDFTLKISRVEAEDVGVYYCMQHLEYPLTFGQGTKLEIK
notes: also called Antibody 13
B13: humanized anti-CSP-1 antibody, Antibody Number 5 (Table 1) (antibody, human IgG1, V domains shown)
VH: QIQLVQSGPELKKPGETVKISCKASGYTFTDYSMHWVKQAPGKGLKWMGWINTETGEPTYADDFKGRFAFSLETSASTAYLQINNLKNEDTATYFCAPGGFAYWGQGTLVTVSA
VL: DIVMTQAAPSVPVTPGESVSISCRSSKSLLHSNGNTYLYWFLQRPGQSPQLLIYRLSNLASGVPDRFSGSGSGTAFTLRISRVEAEDVGVYYCMQHLEYPLTFGAGTKLELK
notes: also called Antibody 5
B14: humanized anti-CSP-1 antibody, Antibody Number 7 (Table 1) (antibody, human IgG1, V domains shown)
VH: QIQLVQSGPEVKKPGASVKISCKASGYTFTDYSMHWVKQAPGQGLKWMGWINTETGEPTYADDFKGRFTFTLDTSTSTAYLEISSLRSEDTATYFCAPGGFAYWGQGTLVTVSS
VL: DIVMTQAAPSVPVTPGESVSISCRSSKSLLHSNGNTYLYWFLQRPGQSPQLLIYRMSNLASGVPDRFSGSGSGTAFTLRISRVEAEDVGVYYCMQHLEYPLTFGAGTKLELK
notes: also called Antibody 7
B15: humanized anti-CSP-1 antibody, Antibody Number 10 (Table 1) (antibody, human IgG1, V domains shown)
VH: QIQLVQSGPELKKPGETVKISCKASGYTFTDYSMHWVKQAPGKGLKWMGWINTETGEPTYADDFKGRFAFSLETSASTAYLQINNLKNEDTATYFCAPGGFAYWGQGTLVTVSA
VL: DIVMTQSAPSLPVTPGQSVSISCRSSKSLLHSNGNTYLYWFLQKPGQSPQLLIYRMSNRASGVPDRFSGSGSGTDFTLKISRVEAEDVGVYYCMQHLEYPLTFGQGTKLEIK
notes: also called Antibody 10
B16: humanized anti-CSP-1 antibody, Antibody Number 4 (Table 1) (antibody, human IgG1, V domains shown)
VH: QIQLVQSGPELKKPGETVKISCKASGYTFTDYSMHWVKQAPGKGLKWMGWINTETGEPTYADDFKGRFAFSLETSASTAYLQINNLKNEDTATYFCAPGGFAYWGQGTLVTVSA
VL: DIVMTQAAPSVPVTPGESVSISCRSSKSLLHSNGNTYLYWFLQRPGQSPQLLIYRVSNLASGVPDRFSGSGSGTAFTLRISRVEAEDVGVYYCMQHLEYPLTFGAGTKLELK
notes: also called Antibody 4
B17: humanized anti-CSP-1 antibody, Antibody Number 9 (Table 1) (antibody, human IgG1, V domains shown)
VH: QIQLVQSGPELKKPGETVKISCKASGYTFTDYSMHWVKQAPGKGLKWMGWINTETGEPTYADDFKGRFAFSLETSASTAYLQINNLKNEDTATYFCAPGGFAYWGQGTLVTVSA
VL: DIVMTQSAPSVPVTPGQSVSISCRSSKSLLHSNGNTYLYWFLQKPGQSPQLLIYRMSNRASGVPDRFSGSGSGTDFTLKISRVEAEDVGVYYCMQHLEYPLTFGQGTKLEIK
notes: also called Antibody 9
B18: humanized anti-CSP-1 antibody, Antibody Number 6 (Table 1) (antibody, human IgG1, V domains shown)
VH: QIQLVQSGPELKKPGETVKISCKASGYTFTDYSMHWVKQAPGKGLKWMGWINTETGEPTYADDFKGRFAFSLETSASTAYLQINNLKNEDTATYFCAPGGFAYWGQGTLVTVSA
VL: DIVMTQAAPSVPVTPGESVSISCRSSKSLLHSNGNTYLYWFLQRPGQSPQLLIYRISNLASGVPDRFSGSGSGTAFTLRISRVEAEDVGVYYCMQHLEYPLTFGAGTKLELK
notes: also called Antibody 6

The assay concerns the target T1, Sec8-His (section 8 (Sec8), an …). The experiment in a line: BLI (Octet), single shot: antibody on anti-human IgG tips, 24 nM Sec8-His. As to the method:
After humanization, the antibodies were tested for their capability to bind to an antigenic region of CSP-1 called section 8 (Sec8). Antigen binding was assessed by single-shot Octet analysis. Antibodies were loaded onto anti-human IgG tips, and the loaded tips were dipped into wells containing the Sec8-His antigen. Scouting experiments were used to determine ideal conditions for loading (10 minute incubation in 1 μg/mL IgG) and antigen binding (5 minute incubation in 24 nM Sec8-His, followed by a 5 minute dissociation step in buffer). Two negative controls were included with each experiment. First, a tip was loaded with irrelevant IgG dipped into 24 nM Sec8-His to control for non-specific interactions between the tip and the antigen. Next, tips loaded with humanized 1D7 variants were dipped into 24 nM GST-His to control for off-target binding of the antibody (a significant risk if a given variant is destabilized and/or exposes significant hydrophobic surface). The data from the irrelevant IgG control were subtracted from the data obtained with the […]-loaded tips. The mean and standard deviation of the signal change values for the GST-His control wells were used to calculate a threshold for positive binding (mean+3 standard deviations of the GST-His signal). Variants that were below this threshold are considered to have no specific binding to Sec8.
(In general: Biolayer interferometry detects binding as a change in optical thickness at a sensor tip.)
On to B1, for which the binding result is given as “binds”.
The value for B2 was “binds”.
The value for B3 was “binds”; that for B4 was “binds”; that for B5 was “binds”.
In the case of B6 it was “binds”; in that of B7, “binds”.
For B8, the binding result was “binds”.
Turning to B9, the binding result is recorded as “binds”.
The value for B10 was “binds”.
In the case of B11, the binding result is recorded as “binds”.
In the case of B12 it was “binds”; in that of B13, “binds”.
In the case of B14 it was “binds”; in that of B15, “binds”.
In the case of B16 it was “binds”.
For B17, the binding result is listed as “binds”.
Consider B18, for which the binding result is recorded as “binds”.
